Here are results for three molecules from PMC10320015, “Structural insights into CED-3 activation” (Life Science Alliance, 2023).

First the molecules themselves.
B1: CED-4 apoptosome (natural protein, C. elegans)
chain: MLCEIECRALSTAHTRLIHDFEPRDALTYLEGKNIFTEDHSELISKMSTRLERIANFLRIYRRQASELGPLIDFFNYNNQSHLADFLEDYIDFAINEPDLLRPVVIAPQFSRQMLDRKLLLGNVPKQMTCYIREYHVDRVIKKLDEMCDLDSFFLFLHGRAGSGKSVIASQALSKSDQLIGINYDSIVWLKDSGTAPKSTFDLFTDILLMLKSEDDLLNFPSVEHVTSVVLKRMICNALIDRPNTLFVFDDVVQEETIRWAQELRLRCLVTTRDVEISNAASQTCEFIEVTSLEIDECYDFLEAYGMPMPVGEKEEDVLNKTIELSSGNPATLMMFFKSCEPKTFEKMAQLNNKLESRGLVGVECITPYSYKSLAMALQRCVEVLSDEDRSALAFAVVMPPGVDIPVKLWSCVIPVDICSNEEEQLDDEVADRLKRLSKRGALLSGKRMPVLTFKIDHIIHMFLKHVVDAQTIANGISILEQRLLEIGNNNVSVPERHIPSHFQKFRRSSASEMYPKTTEETVIRPEDFPKFMQLHQKFYDSLKNFACC
notes: CED-4, C. elegans; also called CED-4b; CED-4c; source: recombinantly expressed, obtained as previously reported (Qi et al, 2010), purified (SEC)

Data set [1] deals with the molecule itself. Put plainly: cryo-EM structure; CED-4 apoptosome alone (Apo dataset), low-salt sample, about 2 uM; 3D classification and refinement.
Data set [2] deals with the molecule itself. Nature of the data set: cryo-EM structure; CED-4/CED-3_CARD complex, assembled at 4°C for 1 h, purified by SEC in 20 mM HEPES pH 7.5, 10 mM KCl, 1.5 mM MgCl2, 1 mM EDTA, 1 mM DTT; about 2 uM. In general terms: Size exclusion chromatography separates by hydrodynamic size, large species first.
Data set [3] concerns the molecule itself. Put plainly: cryo-EM structure; holoenzyme: ternary complex of CED-4, CED-3 CARD and CED-3 catalytic domain, assembled at 4°C for 1 h, purified by SEC in 20 mM HEPES pH 7.5, 10 mM KCl, 1.5 mM MgCl2, 1 mM EDTA, 1 mM DTT; about 2 uM.
Data set [4] concerns the target B1. Nature of the data set: cryo-EM structure; CED-4/CED-3 catalytic complex: CED-4 incubated with CED-3 (198-503, C358A), assembled at 4°C for 1 h, purified by SEC in 20 mM HEPES pH 7.5, 10 mM KCl, 1.5 mM MgCl2, 1 mM EDTA, 1 mM DTT; about 2 uM. The conditions noted are these: both partners purified.
Data set [5] has as its target B1. Put plainly: cryo-EM structure; CED-4/CED-3_CARD complex, assembled at 4°C for 1 h, purified by SEC in 20 mM HEPES pH 7.5, 10 mM KCl, 1.5 mM MgCl2, 1 mM EDTA, 1 mM DTT; about 2 uM. The following applies: both partners purified.

For B1, the entries for the “stoichiometry N” value in data set [1], in data set [2] and in data set [3] were 7, 8 and 6, respectively.

B2: CED-3 catalytic mutant (198–503, C358A) (domain or fragment, C. elegans, UniProt P42573 198-503, looked up)
chain: NRSFSKASGPTQYIFHEEDMNFVDAPTISRVFDEKTMYRNFSSPRGMCLIINNEHFEQMPTRNGTKADKDNLTNLFRCMGYTVICKDNLTGRGMLLTIRDFAKHESHGDSAILVILSHGEENVIIGVDDIPISTHEIYDLLNAANAPRLANKPKIVFVQAARGERRDNGFPVLDSVDGVPAFLRRGWDNRDGPLFNFLGCVRPQVQQVWRKKPSQADILIAYATTAQYVSWRNSARGSWFIQAVCEVFSTHAKDMDVVELLTEVNKKVACGFQTSQGSNILKQMPEMTSRLLKKFYFWPEARNSAV
notes: CED-3 catalytic domain, C. elegans, residues 198-503; also called CED-3 catalytic domain; catalytic mutant (C358A); source: expressed and purified as described previously (Huang et al, 2013)
On to B2, for which the binding result with CED-4 apoptosome [4] was “binds”.

B3: WT CED-3 CARD (domain or fragment, C. elegans, UniProt P42573 1-91, looked up)
chain: MMRQDRRSLLERNIMMFSSHLKVDEILEVLIAKQVLNSDNGDMINSCGTVREKRREIVKAVQRRGDVAFDAFYDALRSTGHEGLAEVLEPL
notes: CED-3 CARD (caspase recruitment domain), C. elegans; source: E. coli BL21 (DE3), purified (Ni-NTA, Source-15Q anion exchange)
Regarding B3, the “stoichiometry N” value with CED-4 apoptosome [5] is 4 CED-3 CARDs per octameric CED-4 apoptosome.

In general, stoichiometry N refers to a count of units in the complex or per binding partner.
